This is an account of results in patent publication US20250281611A1 (BIOSCEPTRE AUST, published 2025).

One assay addresses T1, BCMA (UniProt Q02223 1-184, limits assumed).
T1 construct: whole, on cells
T1 sequence (looked up): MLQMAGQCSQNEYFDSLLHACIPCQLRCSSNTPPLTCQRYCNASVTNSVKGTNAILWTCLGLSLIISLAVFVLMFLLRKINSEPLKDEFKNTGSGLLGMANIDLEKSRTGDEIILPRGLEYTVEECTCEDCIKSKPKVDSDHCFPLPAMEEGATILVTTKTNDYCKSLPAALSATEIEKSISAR
Description: flow cytometry, RPMI 8226 cells. Background: A flow cytometer gives signals particle by particle.

Another assay deals with T2, CD123 (UniProt P26951 19-378, limits assumed).
T2 construct: whole, on cells; also called IL3RA
T2 sequence (P26951 19-378 limits assumed): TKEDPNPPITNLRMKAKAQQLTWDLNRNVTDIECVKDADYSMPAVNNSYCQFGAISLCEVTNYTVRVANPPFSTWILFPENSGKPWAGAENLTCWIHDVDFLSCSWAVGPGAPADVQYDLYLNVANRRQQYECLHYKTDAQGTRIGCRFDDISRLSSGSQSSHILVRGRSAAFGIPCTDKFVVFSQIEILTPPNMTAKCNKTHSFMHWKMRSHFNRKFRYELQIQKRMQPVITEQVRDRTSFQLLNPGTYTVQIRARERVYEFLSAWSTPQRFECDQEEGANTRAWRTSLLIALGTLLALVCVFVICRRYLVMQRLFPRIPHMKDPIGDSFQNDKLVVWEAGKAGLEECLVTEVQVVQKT
The assay is described as follows: flow cytometry, MOLM-13 cells.

The target of another assay is T3, CD135 (UniProt P36888 27-993, limits assumed).
T3 construct: whole, on cells; also called FLT-3
The assay is described as follows: flow cytometry, MOLM-13 cells.

A further assay addresses T4, CD70 (UniProt P32970 1-193, limits assumed).
T4 construct: whole, on cells
T4 sequence (looked up): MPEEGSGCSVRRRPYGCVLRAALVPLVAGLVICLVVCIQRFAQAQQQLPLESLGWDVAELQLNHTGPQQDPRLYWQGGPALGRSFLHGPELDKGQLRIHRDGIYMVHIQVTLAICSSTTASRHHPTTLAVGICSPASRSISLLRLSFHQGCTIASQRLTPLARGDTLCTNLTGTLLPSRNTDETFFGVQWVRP
The assay is described as follows: flow cytometry, Raji cells.

The target in a further assay is T5, EGFR (UniProt P00533 25-1210).
T5 construct: whole, on cells
The assay is described as follows: flow cytometry, MDA-MB 231 and PC-3 cells.

The target in a further assay is T6, CD22 (UniProt P20273 20-847, limits assumed).
T6 construct: whole, on cells
Description: flow cytometry, Raji cells.

B1: BCMA bridging molecule (E200 + BCMA binder, clone CA8 J9M0, B039) (Fab, V domains shown)
VH: QVQLVQSGAEVKKPGSSVKVSCKGSGYTFTNYWMHWVRQAPGQGLEWIGATYRGHSDTYYNQKFKGRATLTADTSTSTAYMELSSLRSEDTAVYYCTRGAIYDGYDVLDNWGQGTLVTVSS
VL: DIQMTQSPSSLSASVGDRVTITCSASQDISNYLNWYQQKPGKAPKLLIYYTSNLHSGVPSRFSGSGSGTDFTLTISSLQPEDFATYYCQQYRKLPWTFGQGTKLEIKR
For B1, the binding result with BCMA was “binds”.

B2: CD123 bridging molecule (E200 + CD123 binder, clone 32716, B042) (Fab, V domains shown)
VH: QIQLVQSGPELKKPGETVKISCKASGYIFTNYGMNWVKQAPGKSFKWMGWINTYTGESTYSADFKGRFAFSLETSASTAYLHINDLKNEDTATYFCARSGGYDPMDYWGQGTSVTVSS
VL: DIVLTQSPASLAVSLGQRATISCRASESVDNYGNTFMHWYQQKPGQPPKLLIYRASNLESGIPARFSGSGSRTDFTLTINPVEADDVATYYCQQSNEDPPTFGAGTKLELKR
As for B2, in the assay with CD123, the binding result is “binds”.

B3: CD135 bridging molecule (E200 + CD135 binder, clone 4G8, B041) (Fab, V domains shown)
VH: QVQLQQPGAELVKPGASLKLSCKSSGYTFTSYWMHWVRQRPGHGLEWIGEIDPSDSYKDYNQKFKDKATLTVDRSSNTAYMHLSSLTSDDSAVYYCARAITTTPFDFWGQGTTLTVSS
VL: DIVLTQSPATLSVTPGDSVSLSCRASQSISNNLHWYQQKSHESPRLLIKYASQSISGIPSRFSGSGSGTDFTLSINSVETEDFGVYFCQQSNTWPYTFGGGTKLEIKR
Consider B3, for which the binding result in the assay with CD135 was “binds”.

B4: CD70 bridging molecule (E200 + CD70 binder, Cusatuzumab, B028) (Fab, V domains shown)
VH: EVQLVESGGGLVQPGGSLRLSCAASGFTFSVYYMNWVRQAPGKGLEWVSDINNEGGTTYYADSVKGRFTISRDNSKNSLYLQMNSLRAEDTAVYYCARDAGYSNHVPIFDSWGQGTLVTVSS
VL: SQAVVTQEPSLTVSPGGTVTLTCGLKSGSVTSDNFPTWYQQTPGQAPRLLIYNTNTRHSGVPDRFSGSILGNKAALTITGAQADDEAEYFCALFISNPSVEFGGGTQLTVLK
Turning to B4, in the assay with CD70, the binding result is recorded as “binds”.

B5: EGFR bridging molecule (E200 + EGFR binder, Matuzumab, B035) (Fab, V domains shown)
VH: QVQLVQSGAEVKKPGASVKVSCKASGYTFTSHWMHWVRQAPGQGLEWIGEFNPSNGRTNYNEKFKSKATMTVDTSTNTAYMELSSLRSEDTAVYYCASRDYDYDGRYFDYWGQGTLVTVSS
VL: DIQMTQSPSSLSASVGDRVTITCSASSSVTYMYWYQQKPGKAPKLLIYDTSNLASGVPSRFSGSGSGTDYTFTISSLQPEDIATYYCQQWSSHIFTFGQGTKVEIKR
For B5, the binding result with EGFR is “binds”.

B6: CD22 bridging molecule (E200 + CD22 binder, m971-L7, B023) (Fab, V domains shown)
VH: QVQLQQSGPGMVKPSQTLSLTCAISGDSVSSNSVAWNWIRQSPSRGLEWLGRTYYRSTWYNDYAVSMKSRITINPDTNKNQFSLQLNSVTPEDTAVYYCAREVTGDLEDAFDIWGQGTMVTVSS
VL: DIQMIQSPSSLSASVGDRVTITCRASQTIWSYLNWYRQRPGEAPNLLIYAASSLQSGVPSRFSGRGSGTDFTLTISSLQAEDFATYYCQQSYSIPQTFGQGTKLEIKR
Consider B6, for which the binding result in the assay with CD22 is “binds”.
